Values quoted from earlier work in publication PMC3437440.

Target: IgG1 Fc Fc (Homo sapiens) [IgG part: P01857]

FcγRIIIa (Val158 variant), sequence (P08637 17-254, change not shown): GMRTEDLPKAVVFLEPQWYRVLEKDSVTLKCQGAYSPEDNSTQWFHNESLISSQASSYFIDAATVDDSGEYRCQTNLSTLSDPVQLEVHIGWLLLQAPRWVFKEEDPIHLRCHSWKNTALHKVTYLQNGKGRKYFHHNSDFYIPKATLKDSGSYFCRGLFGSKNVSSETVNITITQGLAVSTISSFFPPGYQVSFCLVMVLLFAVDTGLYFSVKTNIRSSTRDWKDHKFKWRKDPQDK

Kd: 100 nM
Substance: FcγRIIIa (Val158 variant) (from UniProt P08637)
